B1: FGF-7: fibroblast growth factor, PeproTech (protein)
chain: CNDMTPEQMATNVNCSSPERHTRSYDYMEGGDIRVRRLFCRTQWYLRIDKRGKVKGTQEMKNNYNIMEIRTVAVGIVAIKGVESEFYLAMNKEGKLYAKKECNEDCNFKELILENHYNTYASAKWTHNGGEMFVALNQKGIPVRGKKTKKEQKTAHFLPMAIT
B2: FGF-10: fibroblast growth factor, PeproTech (protein)
chain: QALGQDMVSPEATNSSSSSFSSPSSAGRHVRSYNHLQGDVRWRKLFSFTKYFLKIEKNGKVSGTKKENCPYSILEITSVEIGVVAVKAINSNYYLAMNKKGKLYGSKEFNNDCKLKERIEENGYNTYASFNWQHNGRQMYVALNGKGAPRRGQKTRRKNTSAHFLPMVVHS
B3: FGF-6: fibroblast growth factor, PeproTech (protein)
chain: SPAGTRANNTLLDSRGWGTLLSRSRAGLAGEIAGVNWESGYLVGIKRQRRLYCNVGIGFHLQVLPDGRISGTHEENPYSLLEISTVERGVVSLFGVRSALFVAMNSKGRLYATPSFQEECKFRETLLPNNYNAYESDLYQGTYIALSKYGRVKRGSKVSPIMTVTHFLPRI
B4: BMP-3: bone morphogenetic protein, PeproTech (protein)
chain: QWIEPRNCARRYLKVDFADIGWSEWIISPKSFDAYYCSGACQFPMPKSLKPSNHATIQSIVRAVGVVPGIPEPCCVPEKMSSLSILFFDENKNVVLKVYPNMTVESCACR
B5: BMP-7: bone morphogenetic protein, PeproTech, produced in eukaryotic cells (protein)
chain: STGSKQRSQNRSKTPKNQEALRMANVAENSSSDQRQACKKHELYVSFRDLGWQDWIIAPEGYAAYYCEGECAFPLNSYMNATNHAIVQTLVHFINPETVPKPCCAPTQLNAISVLYFDDSSNVILKKYRNMVVRACGCH
B6: BDNF: brain-derived neurotrophic factor, PeproTech (protein, UniProt P23560 19-247, looked up)
Neurotrophic factor BDNF …: APMKEANIRGQGGLAYPGVRTHGTLESVNGPKAGSRGLTSLADTFEHVIEELLDEDQKVRPNEENNKDADLYTSRVMLSSQVPLEPPLLFLLEEYKNYLDAANMSMRVRRHSDPARRGELSVCDSISEWVTAADKKTAVDMSGGTVTVLEKVPVSKGQLKQYFYETKCNPMGYTKEGCRGIDKRHWNSQCRTTQSYVRALTMDSKKRIGWRFIRIDTSCVCTLTIKRGR
B7: PlGF-2: placental growth factor (PlGF)-2, PeproTech (protein)
chain: LPAVPPQQWALSAGNGSSEVEVVPFQEVWGRSYCRALERLVDVVSEYPSEVEHMFSPSCVSLLRCTGCCGDENLHCVPVETANVTMQLLKIRSGDRPSYVELTFSQHVRCECRPLREKMKPERRRPKGRGKRRREKQRPTDCHLCGDAVPRR
B8: PDGF-CC: platelet-derived growth factor, PeproTech (protein)
chain: VVDLNLLTEEVRLYSCTPRNFSVSIREELKRTDTIFWPGCLLVKRCGGNCACCLHNCNECQCVPSKVTKKYHEVLQLRPKTGVRGLHKSLTDVALEHHEECDCVCRGSTGG
B9: PlGF-1: placental growth factor, PeproTech (protein)
chain: LPAVPPQQWALSAGNGSSEVEVVPFQEVWGRSYCRALERLVDVVSEYPSEVEHMFSPSCVSLLRCTGCCGDENLHCVPVETANVTMQLLKIRSGDRPSYVELTFSQHVRCECRPLREKMKPERCGDAVPRR

Test system: recombinant human laminin isoforms (–111, –211, –332, –411, –421, –511, and –521)
Assay: ELISA: binding of full-length laminin isoforms to absorbed GFs and CXCL chemokines
Settings: 50 nM GF coated, 10 nM laminin; signals greater than 0.1 indicate binding; n = 4
Procedure: Ninety-six-well ELISA plates (med-binding, Greiner Bio-One) were coated with 50 nM GFs in 100 µL/well of phosphate-buffered saline (PBS) at 37 °C for more than 2 h. After blocking with 2% BSA solution containing PBS and 0.05% Tween 20 (PBS-T), 10 nM recombinant human laminin isoforms (–111, –211, –332, –411, –421, –511, and –521) (>95% purity tested by SDS-PAGE, BioLamina) in 100 µL/well PBS were added. Bound laminin was detected with 100 µL/well rabbit anti-human LAMC1 polyclonal antibody (Assay Biotech, Catalog No. C13072, 1:1000 dilution in PBS) or rabbit anti-human LAMA3 polyclonal antibody (Assay Biotech, Catalog No. C13066, 1:1000 dilution in PBS). After incubation with biotinylated anti-rabbit antibody for 60 min at room temperature (RT), HRP-conjugated streptavidin (Jackson ImmunoResearch) was added. After 60 min of incubation at RT, 50 μL of TMB substrate (Sigma-Aldrich) was added. The reactions were stopped by adding 25 μL of 2 N H2SO4. Subsequently, the absorbance at 450 nm was measured with a reference of 570 nm.

| Molecule | binding to all tested laminin isoforms (ELISA, A450 nm) |
| --- | --- |
| B1 | bound |
| B2 | bound |
| B3 | did not |
| B4 | showed binding |
| B5 | not |
| B6 | strong binding |
| B7 | bound |
| B8 | bound |
| B9 | did not show binding |

Source: paper PMC5986797, “Laminin heparin-binding peptides bind to several growth factors and enhance diabetic wound healing” (Nature Communications, 2018)
